Reference: patent US20110263454A1, “Methods of Identifying Functional Characteristics of Promoters, Transcription Modifying Proteins and Transcription Modulating Agents” (Salk Institute for Biological Studies, priority 2008, published 2011)

Key:
hG6PD promoter = assay: NHR-promoter luciferase screen, hG6PD promoter; type: cell-based, human; conditions: for Luc. act., normalized to lacZ / Normalized Luc. act., normalized to control: G6PD promoter reporter, co-transfected HR, without or with its ligand; for Normalized Luc. act., normalized to control: relative to control; for luciferase activity normalized to lacZ activity and to a control, hG6PD: hG6PD promoter-luciferase, CV-1 cells, NHR +/- ligand, control = 1.00
Procedure, shortened: (§1)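 CV-1 cells were co-transfected with 50 ng NHR (homodimer or NHR/RXR heterodimer), 100 ng promoter-luciferase construct and 50 ng LacZ. Luciferase was normalized to LacZ and to a no-NHR/no-ligand control.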

hPOMC promoter = assay: NHR-promoter luciferase screen, hPOMC promoter; type: cell-based, human; conditions: for Luc. act., normalized to lacZ / Normalized Luc. act., normalized to control: hPOMC promoter, HR/ligand component; for hPOMC promoter reporter activity: transcription factor +/- ligand, control = 1.00
Procedure, shortened: as §1

mPOMC promoter = assay: NHR-promoter luciferase screen, mPOMC promoter; type: cell-based, mouse; conditions: for Results of assays of transcription factor (+/- ligand) with mPOMC: Table 6d, luciferase activity relative to control (control = 1.00); for Luc. act., normalized to lacZ / Normalized Luc. act., normalized to control: mPOMC promoter, HR component with or without ligand; for Normalized Luc. act., normalized to control: relative to control
Procedure, shortened: as §1

hPPARg1 promoter = assay: NHR-promoter luciferase screen, hPPARg1 promoter; type: cell-based, human; conditions: for Luc. act., normalized to lacZ / Normalized Luc. act., normalized to control: PPARG1 promoter, hormone receptor with or without its ligand; for Normalized Luc. act., normalized to control: relative to control; for Results of assays of transcription factor (+/- ligand) with hPPARg1: Table 6d, luciferase activity relative to control (control = 1.00)
Procedure, shortened: as §1

RevErba promoter = assay: NHR-promoter luciferase screen, RevErba (RVRa) promoter; type: cell-based; design: key to mRevErba promoter reporter activity / Normalized Luc. act., normalized to control: luciferase activity normalized to lacZ and to control (no NHR/ligand); conditions: for Luc. act., normalized to lacZ / Normalized Luc. act., normalized to control / negative reciprocal of normalized Luc. act. (fold repression; Table 33) / normalized Luc. act. on a logarithmic scale (column without head, Table 33): RVRa promoter; for Luc. act., normalized to lacZ / Normalized Luc. act., normalized to control: HR component without or with ligand; for negative reciprocal of normalized Luc. act. (fold repression; Table 33): given only where activity is below control; for normalized Luc. act. on a logarithmic scale (column without head, Table 33): log10 of activity normalized to control; for mRevErba promoter reporter activity: transcription factor +/- ligand, control = 1.00
Procedure, shortened: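 CV-1 cells co-transfected with NHR (pcDNA3.1, C-terminal V5H6 tag) as homodimer or RXR heterodimer, RevErbα promoter–luciferase reporter and LacZ transfection control; ligand added where applicable. Luciferase normalized to LacZ and to no-NHR/no-ligand control.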

| Molecule | Luc. act., normalized to lacZ (hG6PD promoter) | Normalized Luc. act., normalized to control (hG6PD promoter) | luciferase activity normalized to lacZ activity and to a control, hG6PD (hG6PD promoter) | Luc. act., normalized to lacZ (hPOMC promoter) | Normalized Luc. act., normalized to control (hPOMC promoter) | hPOMC promoter reporter activity (hPOMC promoter) | Results of assays of transcription factor (+/- ligand) with mPOMC (mPOMC promoter) | Luc. act., normalized to lacZ (mPOMC promoter) | Normalized Luc. act., normalized to control (mPOMC promoter) | Luc. act., normalized to lacZ (hPPARg1 promoter) | Normalized Luc. act., normalized to control (hPPARg1 promoter) | Results of assays of transcription factor (+/- ligand) with hPPARg1 (hPPARg1 promoter) | Luc. act., normalized to lacZ (RevErba promoter) | Normalized Luc. act., normalized to control (RevErba promoter) | negative reciprocal of normalized Luc. act. (fold repression; Table 33) (RevErba promoter) | normalized Luc. act. on a logarithmic scale (column without head, Table 33) (RevErba promoter) | mRevErba promoter reporter activity (RevErba promoter) |
| --- | --- | --- | --- | --- | --- | --- | --- | --- | --- | --- | --- | --- | --- | --- | --- | --- | --- |
| SHP: Small Heterodimer Partner (NR0B2), cDNA driver (protein, UniProt Q15466 1-257, looked up) Nuclear receptor subfamily 0 …: MSTSQPGACPCQGAASRPAILYALLSSSLKAVPRPRSRCLCRQHRPVQLCAPHRTCREALDVLAKTVAFLRNLPSFWQLPPQDQRRLLQGCWGPLFLLGLAQDAVTFEVAEAPVPSILKKILLEEPSSSGGSGQLPDRPQPSLAAVQWLQCCLESFWSLELSPKEYACLKGTILFNPDVPGLQAASHIGHLQQEAHWVLCEVLEPWCPAAQGRLTRVLLTASTLKSIPTSLLGDLFFRPIIGDVDIAGLLGDMLLLR | 43.2 | 1.2 | 1.15 | 1.9 | 0.4 | 0.43 | 0.95 | 65.6 | 1.0 | 67.9 | 1.0 | 0.99 | 22.7 | 0.8 | −1.229 | −0.09 | 0.81 |
| GCNF: Germ Cell Nuclear Factor (NR6A1, GCNF1), cDNA driver (protein, UniProt Q15406 1-480, looked up) Nuclear receptor subfamily 6 …: MERDEPPPSGGGGGGGSAGFLEPPAALPPPPRNGFCQDELAELDPGTISVSDDRAEQRTCLICGDRATGLHYGIISCEGCKGFFKRSICNKRVYRCSRDKNCVMSRKQRNRCQYCRLLKCLQMGMNRKAIREDGMPGGRNKSIGPVQISEEEIERIMSGQEFEEEANHWSNHGDSDHSSPGNRASESNQPSPGSTLSSSRSVELNGFMAFREQYMGMSVPPHYQYIPHLFSYSGHSPLLPQQARSLDPQSYSLIHQLLSAEDLEPLGTPMLIEDGYAVTQAELFALLCRLADELLFRQIAWIKKLPFFCELSIKDYTCLLSSTWQELILLSSLTVYSKQIFGELADVTAKYSPSDEELHRFSDEGMEVIERLIYLYHKFHQLKVSNEEYACMKAINFLNQDIRGLTSASQLEQLNKRYWYICQDFTEYKYTHQPNRFPDLMMCLPEIRYIAGKMVNVPLEQLPLLFKVVLHSCKTSVGKE | 46.1 | 1.2 | 1.23 |  | 0.0 | 0.00 | 0.61 | 42.0 | 0.6 | 88.6 | 1.3 | 1.29 | 25.7 | 0.9 | −1.087 | −0.04 | 0.92 |
| DAX-1: DAX1 (NR0B1), cDNA driver (protein, UniProt P51843 1-470, looked up) Nuclear receptor subfamily 0 …: MAGENHQWQGSILYNMLMSAKQTRAAPEAPETRLVDQCWGCSCGDEPGVGREGLLGGRNVALLYRCCFCGKDHPRQGSILYSMLTSAKQTYAAPKAPEATLGPCWGCSCGSDPGVGRAGLPGGRPVALLYRCCFCGEDHPRQGSILYSLLTSSKQTHVAPAAPEARPGGAWWDRSYFAQRPGGKEALPGGRATALLYRCCFCGEDHPQQGSTLYCVPTSTNQAQAAPEERPRAPWWDTSSGALRPVALKSPQVVCEAASAGLLKTLRFVKYLPCFQVLPLDQQLVLVRNCWASLLMLELAQDRLQFETVEVSEPSMLQKILTTRRRETGGNEPLPVPTLQHHLAPPAEARKVPSASQVQAIKCFLSKCWSLNISTKEYAYLKGTVLFNPDVPGLQCVKYIQGLQWGTQQILSEHTRMTHQGPHDRFIELNSTLFLLRFINANVIAELFFRPIIGTVSMDDMMLEMLCTKI | 46.0 | 1.2 | 1.23 | 2.7 | 0.6 | 0.63 | 0.92 | 63.4 | 0.9 | 67.5 | 1.0 | 0.98 | 29.4 | 1.1 |  | 0.02 | 1.05 |
